Experimental findings from US20250129170A1 (IMMUNEDGE, published 2025) are described below.

The assay concerns the target T1, hCD131-Fc (IME021, inhouse) (human, UniProt P32927 17-443, limits assumed).
T1 construct: also called soluble CD131 subunit of hetero-EPOR; not shown: Fc
T1 sequence (looked up): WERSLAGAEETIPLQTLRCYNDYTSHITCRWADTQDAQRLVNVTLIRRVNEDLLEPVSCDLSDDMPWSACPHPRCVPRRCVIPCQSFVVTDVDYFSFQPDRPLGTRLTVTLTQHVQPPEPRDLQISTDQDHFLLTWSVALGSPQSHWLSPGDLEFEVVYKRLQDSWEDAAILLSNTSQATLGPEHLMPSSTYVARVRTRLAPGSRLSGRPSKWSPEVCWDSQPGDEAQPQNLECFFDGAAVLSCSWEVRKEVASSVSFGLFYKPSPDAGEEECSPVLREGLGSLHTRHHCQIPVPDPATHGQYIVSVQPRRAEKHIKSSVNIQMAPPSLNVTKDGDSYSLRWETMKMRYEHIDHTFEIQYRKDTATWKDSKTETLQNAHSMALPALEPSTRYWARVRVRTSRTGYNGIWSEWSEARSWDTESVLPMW
The assay is described as follows: Octet BLI, antibody from supernatant captured on anti-mouse Fc biosensors, 30 nM soluble receptor Fc fusion. On the technique in general: BLI is a label-free optical method that tracks binding on a fibre tip over time.

B1: hybridoma clone M26 (antibody, V domains shown)
VH: QVQLVQSGVEVKKPGASVKVSCKASGYAFSNNDISWVRQAPGQGLEWMAWITTSNGNTNYAPKLQGRVTMTTDTSTSTAYMELRSLKSDDTAVYYCARGGRTGYFDYWGQGTLVTVSS
VL: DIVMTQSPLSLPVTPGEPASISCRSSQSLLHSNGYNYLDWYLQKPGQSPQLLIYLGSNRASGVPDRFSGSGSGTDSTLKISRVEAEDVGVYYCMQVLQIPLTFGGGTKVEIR
notes: Hybridoma from ATX-GK mice; also called EPORab - M26
Consider B1, for which the binding result is “binds”.
